Experimental data: patent US20230220589A1

Assays:
[1] = molecular target: M44-modified Q NTAA target peptides; test: encoding assay; P2 D;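 note: fraction of recording tags encoded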
[2] = molecular target: M44-modified H NTAA target peptides; test: encoding assay; P2 I;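 note: fraction of recording tags encoded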
[3] = molecular target: M44-modified A NTAA target peptides (M44-A-P2-peptide); test: encoding assay; P2 I;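 note: fraction of recording tags encoded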
[4] = molecular target: M44-modified I NTAA target peptides (M44-I-P2-peptide); test: encoding assay; P2 I;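 note: fraction of recording tags encoded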
[5] = molecular target: M44-modified V NTAA target peptides; test: encoding assay; P2 I;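 note: fraction of recording tags encoded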
[6] = molecular target: M44-modified D NTAA target peptides; test: encoding assay; P2 I;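 note: fraction of recording tags encoded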
[7] = molecular target: M44-modified S NTAA target peptides; test: encoding assay; P2 I
[8] = molecular target: M44-modified L NTAA target peptides (M44-L-P2-peptide); test: encoding assay; P2 I;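 note: fraction of recording tags encoded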
[9] = molecular target: M44-modified N NTAA target peptides; test: encoding assay; P2 I
[10] = molecular target: M44-modified T NTAA target peptides; test: encoding assay; P2 I;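 note: fraction of recording tags encoded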
[11] = molecular target: M44-modified M NTAA target peptides; test: encoding assay; P2 I;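 note: fraction of recording tags encoded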
[12] = molecular target: M44-modified G NTAA target peptides (M44-G-P2-peptide); test: encoding assay; P2 I;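 note: fraction of recording tags encoded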
[13] = molecular target: M44-modified E NTAA target peptides; test: encoding assay; P2 I;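 note: fraction of recording tags encoded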
[14] = molecular target: M44-modified Q NTAA target peptides; test: encoding assay; P2 I;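 note: fraction of recording tags encoded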
[15] = molecular target: M44-modified Y NTAA target peptides (M44-Y-P2-peptide); test: encoding assay; P2 I;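 note: fraction of recording tags encoded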
[16] = molecular target: M44-modified F NTAA target peptides (M44-F-P2-peptide); test: encoding assay; P2 I;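 note: fraction of recording tags encoded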
[17] = molecular target: M44-modified W NTAA target peptides; test: encoding assay; P2 I;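 note: fraction of recording tags encoded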
[18] = molecular target: M44-modified T NTAA target peptides; test: encoding assay; P2 T;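 note: fraction of recording tags encoded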
[19] = molecular target: M44-modified M NTAA target peptides; test: encoding assay; P2 T;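 note: fraction of recording tags encoded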
[20] = molecular target: M44-modified Y NTAA target peptides (M44-Y-P2-peptide); test: encoding assay; P2 T;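 note: fraction of recording tags encoded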
[21] = molecular target: M44-modified H NTAA target peptides; test: encoding assay; P2 L;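 note: fraction of recording tags encoded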
[22] = molecular target: M44-modified A NTAA target peptides (M44-A-P2-peptide); test: encoding assay; P2 L;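 note: fraction of recording tags encoded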
[23] = molecular target: M44-modified I NTAA target peptides (M44-I-P2-peptide); test: encoding assay; P2 L;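 note: fraction of recording tags encoded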
[24] = molecular target: M44-modified V NTAA target peptides; test: encoding assay; P2 L;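 note: fraction of recording tags encoded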
[25] = molecular target: M44-modified P NTAA target peptides; test: encoding assay; P2 L;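 note: fraction of recording tags encoded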
[26] = molecular target: M44-modified D NTAA target peptides; test: encoding assay; P2 L;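 note: fraction of recording tags encoded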
[27] = molecular target: M44-modified S NTAA target peptides; test: encoding assay; P2 L
[28] = molecular target: M44-modified L NTAA target peptides (M44-L-P2-peptide); test: encoding assay; P2 L;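 note: fraction of recording tags encoded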
[29] = molecular target: M44-modified N NTAA target peptides; test: encoding assay; P2 L
[30] = molecular target: M44-modified T NTAA target peptides; test: encoding assay; P2 L;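 note: fraction of recording tags encoded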
[31] = molecular target: M44-modified M NTAA target peptides; test: encoding assay; P2 L;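 note: fraction of recording tags encoded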
[32] = molecular target: M44-modified G NTAA target peptides (M44-G-P2-peptide); test: encoding assay; P2 L;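 note: fraction of recording tags encoded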
[33] = molecular target: M44-modified E NTAA target peptides; test: encoding assay; P2 L;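 note: fraction of recording tags encoded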
[34] = molecular target: M44-modified Q NTAA target peptides; test: encoding assay; P2 L;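 note: fraction of recording tags encoded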
[35] = molecular target: M44-modified Y NTAA target peptides (M44-Y-P2-peptide); test: encoding assay; P2 L;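 note: fraction of recording tags encoded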
[36] = molecular target: M44-modified F NTAA target peptides (M44-F-P2-peptide); test: encoding assay; P2 L;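 note: fraction of recording tags encoded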
[37] = molecular target: M44-modified W NTAA target peptides; test: encoding assay; P2 L;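 note: fraction of recording tags encoded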
[38] = molecular target: M44-modified H NTAA target peptides; test: encoding assay; P2 V;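 note: fraction of recording tags encoded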
[39] = molecular target: M44-modified A NTAA target peptides (M44-A-P2-peptide); test: encoding assay; P2 V;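 note: fraction of recording tags encoded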
[40] = molecular target: M44-modified I NTAA target peptides (M44-I-P2-peptide); test: encoding assay; P2 V;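 note: fraction of recording tags encoded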
[41] = molecular target: M44-modified P NTAA target peptides; test: encoding assay; P2 V;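 note: fraction of recording tags encoded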
[42] = molecular target: M44-modified D NTAA target peptides; test: encoding assay; P2 V;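 note: fraction of recording tags encoded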
[43] = molecular target: M44-modified S NTAA target peptides; test: encoding assay; P2 V
[44] = molecular target: M44-modified L NTAA target peptides (M44-L-P2-peptide); test: encoding assay; P2 V;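 note: fraction of recording tags encoded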
[45] = molecular target: M44-modified N NTAA target peptides; test: encoding assay; P2 V
[46] = molecular target: M44-modified T NTAA target peptides; test: encoding assay; P2 V;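 note: fraction of recording tags encoded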
[47] = molecular target: M44-modified M NTAA target peptides; test: encoding assay; P2 V;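 note: fraction of recording tags encoded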
[48] = molecular target: M44-modified Q NTAA target peptides; test: encoding assay; P2 V;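 note: fraction of recording tags encoded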
[49] = molecular target: M44-modified Y NTAA target peptides (M44-Y-P2-peptide); test: encoding assay; P2 V;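 note: fraction of recording tags encoded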
[50] = molecular target: M44-modified F NTAA target peptides (M44-F-P2-peptide); test: encoding assay; P2 V;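 note: fraction of recording tags encoded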
[51] = molecular target: M44-modified W NTAA target peptides; test: encoding assay; P2 V;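 note: fraction of recording tags encoded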

B1: engineered M44-L binder (SEQ ID NO: 31) (designed binder, not shown: small tags and cut ends; large carriers)
chain: QDSTQNLIPAPPLISVPLQPGFWTERFQGRWFLVGFAGNAVQKERQSRLTMQSLILELQEDNSYNITAINVRGQGCRYIISTLVPSSRPGQFTLGNIHSYPQIQSLDVQVADTDYDQFAMVFLQGTSENKQYFEVALAGRTKGLSDELKERFVSFAKSLGLKDNNIVFSVPTDQCIDN
B1 showed an encoding yield [1] of 0.02, an encoding yield [2] of 0.03 and an encoding yield [3] of 0.03. For the same binder, the encoding yield [4] was 0.14, the encoding yield [5] was 0.06 and the encoding yield [6] was 0.03. For the same binder, the encoding yield [7] was 0.03, the encoding yield [8] was 0.15 and the encoding yield [9] was 0.05. The encoding yield [10] was 0.04, the encoding yield [11] was 0.03 and the encoding yield [12] was 0.02. It also gave an encoding yield [13] of 0.03, an encoding yield [14] of 0.01 and an encoding yield [15] of 0.07. It also gave an encoding yield [16] of 0.05, an encoding yield [17] of 0.05 and an encoding yield [18] of 0.04. It also gave an encoding yield [19] of 0.01, an encoding yield [20] of 0.07 and an encoding yield [21] of 0.03. It also gave an encoding yield [22] of 0.03, an encoding yield [23] of 0.06 and an encoding yield [24] of 0.04. It also gave an encoding yield [25] of 0.02, an encoding yield [26] of 0.03 and an encoding yield [27] of 0.05. For the same binder, the encoding yield [28] was 0.46, the encoding yield [29] was 0.17 and the encoding yield [30] was 0.02. It also gave an encoding yield [31] of 0.08, an encoding yield [32] of 0.02 and an encoding yield [33] of 0.03. It also gave an encoding yield [34] of 0.04, an encoding yield [35] of 0.09 and an encoding yield [36] of 0.06. It also gave an encoding yield [37] of 0.05, an encoding yield [38] of 0.04 and an encoding yield [39] of 0.04. The encoding yield [40] was 0.09, the encoding yield [41] was 0.02 and the encoding yield [42] was 0.03. It also gave an encoding yield [43] of 0.04, an encoding yield [44] of 0.18 and an encoding yield [45] of 0.05. The encoding yield [46] was 0.03, the encoding yield [47] was 0.05 and the encoding yield [48] was 0.02. For the same binder, the encoding yield [49] was 0.07, the encoding yield [50] was 0.19 and the encoding yield [51] was 0.1.
